Results: patent publication US20230303695A1 (SHANGHAI XBH BIOTECHNOLOGY, published 2023)
Changes are numbered by the printed parent chain. Each block holds one binder with its values, some of them ahead of it.

Assays:
[1] = target: T1, mouse IGSF8 expressed on CT26 cells (mouse, UniProt Q8R366 26-611); test: FACS on CT26 cells expressing mouse IGSF8, anti-human Fc-PE
T1 construct: whole, on cells
T1 sequence (looked up): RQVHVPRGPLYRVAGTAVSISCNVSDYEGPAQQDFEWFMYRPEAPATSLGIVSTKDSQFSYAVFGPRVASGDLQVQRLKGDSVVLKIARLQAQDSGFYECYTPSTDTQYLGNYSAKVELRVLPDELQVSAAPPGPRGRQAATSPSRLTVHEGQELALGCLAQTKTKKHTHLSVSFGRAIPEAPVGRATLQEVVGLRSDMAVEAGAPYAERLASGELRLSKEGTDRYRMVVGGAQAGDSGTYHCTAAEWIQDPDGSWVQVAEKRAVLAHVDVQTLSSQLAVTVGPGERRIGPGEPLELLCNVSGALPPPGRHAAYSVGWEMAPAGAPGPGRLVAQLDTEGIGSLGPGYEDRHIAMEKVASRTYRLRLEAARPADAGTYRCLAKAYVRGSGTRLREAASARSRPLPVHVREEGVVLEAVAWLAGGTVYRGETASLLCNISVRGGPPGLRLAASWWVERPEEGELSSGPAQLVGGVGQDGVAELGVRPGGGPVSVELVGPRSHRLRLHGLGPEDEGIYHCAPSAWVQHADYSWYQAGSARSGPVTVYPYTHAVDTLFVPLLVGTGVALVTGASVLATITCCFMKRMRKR
Experimental: (§1) To test cross reactivity of the L1, and L2 antibodies, CT26 cells with forced human, cynomolgus monkey, or mouse IGSF8 expression were generated by lentiviral delivery. For antibody binding assays based on cell-expressed antigens, 100,000 cells overexpressing the antigen were washed with PBS buffer containing 2% FBS, and then incubated with 100 μL of antibodies or IgG of different concentrations for 30 minutes on ice. Cells were then washed twice with wash buffer, and incubated with 100 μL of 1:100 anti-human Fc-PE antibody for 15 minutes on ice. Cells were washed twice with wash buffer and analyzed on a FACS analyzer (CytoFlex, Beckman). The MFI was plotted vs. antibody concentration. The EC50 cell binding potenct was calculated using nonlinear regression curve fit.

[2] = target: T2, recombinant human IGSF8 extracellular domain tagged by a human Fc region (IGSF8-hFc) (human, UniProt Q969P0 28-579, biotin label in Examples 17, 18 and 28 (site not given)); test: SPR, Ab captured
T2 construct: also called IGSF8-Fc fusion protein; IGSF8-hFc-biotin; not shown: human Fc region
T2 sequence: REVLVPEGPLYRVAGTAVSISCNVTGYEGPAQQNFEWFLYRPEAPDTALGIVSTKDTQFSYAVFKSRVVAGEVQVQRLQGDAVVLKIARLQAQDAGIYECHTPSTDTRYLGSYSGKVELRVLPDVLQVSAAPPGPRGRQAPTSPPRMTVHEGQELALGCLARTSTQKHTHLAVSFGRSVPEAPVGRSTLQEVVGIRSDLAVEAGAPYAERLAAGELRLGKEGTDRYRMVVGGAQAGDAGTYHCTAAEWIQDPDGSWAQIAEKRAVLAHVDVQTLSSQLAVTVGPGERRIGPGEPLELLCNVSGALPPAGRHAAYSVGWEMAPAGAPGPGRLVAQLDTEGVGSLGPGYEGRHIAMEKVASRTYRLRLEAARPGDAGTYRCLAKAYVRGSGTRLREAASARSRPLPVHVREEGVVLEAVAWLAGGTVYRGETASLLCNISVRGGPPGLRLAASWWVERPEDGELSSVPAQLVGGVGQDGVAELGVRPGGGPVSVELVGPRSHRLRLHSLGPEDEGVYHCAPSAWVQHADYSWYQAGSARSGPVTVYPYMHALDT
Experimental: The binding affinities of the L1 and L2 antibodies to IGSF8 recombinant protein were determined by surface plasmon resonance (SPR). Briefly, anti-human Fab antibody was imobilized on acarboxyl-derivatized SPR chip surface, and the antibodies were captured on the resulting surface at 5 μg/ml for 30 seconds.

[3] = target: T3, human IGSF8 expressed on the cell surface (human, UniProt Q969P0 28-613); test: FACS on CT26 cells expressing IGSF8
T3 construct: whole, on cells; also called human IGSF8 on CT26 cells; IGSF8 on MC38 cells
T3 sequence (looked up): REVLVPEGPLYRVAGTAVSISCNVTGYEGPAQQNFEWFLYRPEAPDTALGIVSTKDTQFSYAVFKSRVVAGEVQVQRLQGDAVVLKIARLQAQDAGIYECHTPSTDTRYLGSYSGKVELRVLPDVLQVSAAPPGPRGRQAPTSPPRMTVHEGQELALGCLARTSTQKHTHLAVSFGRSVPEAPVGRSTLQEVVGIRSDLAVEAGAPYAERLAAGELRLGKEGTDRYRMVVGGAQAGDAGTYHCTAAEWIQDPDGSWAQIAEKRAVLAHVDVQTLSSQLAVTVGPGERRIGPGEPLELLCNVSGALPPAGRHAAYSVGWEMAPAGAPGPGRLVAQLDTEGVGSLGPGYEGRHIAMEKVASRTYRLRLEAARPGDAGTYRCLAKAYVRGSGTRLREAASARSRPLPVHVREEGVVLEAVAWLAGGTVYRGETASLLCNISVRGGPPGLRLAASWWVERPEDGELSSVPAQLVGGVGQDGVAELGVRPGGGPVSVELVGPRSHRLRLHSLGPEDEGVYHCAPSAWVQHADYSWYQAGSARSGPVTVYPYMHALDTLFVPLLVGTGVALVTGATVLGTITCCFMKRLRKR
Experimental: as §1

[4] = target: T4, cynomolgus monkey IGSF8 expressed on CT26 cells (cynomolgus monkey, UniProt Q969P0 28-613 (human entry)); test: FACS on CT26 cells expressing IGSF8
T4 sequence: T3 sequence (looked up) with A14T, V63I, V125A, M147L, T148M, K167Q, S187A, F554L
Experimental: as §1

[5] = target: T2, recombinant human IGSF8 extracellular …; test: FACS blocking assay: antibody titrated against biotinylated IGSF8-hFc (1 ug/mL) binding to KIR3DL2 on CT26 cells, Streptavidin-PE
Experimental: CT26 cells with forced ectopic/exogenous human KIR3DL2 expression were incubated with biotinylated IGSF8-hFc recombinant protein (1 μg/mL) in the presence of the antibodies L1-20, L2-10, and a isotype control antibody. The binding of IGSF8-hFc-biotin to the Ct26 cells was determined using Streptavidin-PE by flow cytometry analysis (FIG. 39).

[6] = target: T2, recombinant human IGSF8 extracellular …; test: FACS, IGSF8-hFc on CT26 cells, MFI normalized to Thy1.1
Experimental: KLRC1 also contains a ITIM motif in its intracellular domain, and was known to be a inhibitory receptor of NK or CD8⁺ T cells as part of a heterodimer with KLRD1 on the cell surface. […] Specifically, 100,000 CT26 cells overexpressing the antigens (KIRs or KLRs) were washed with PBS buffer containing 2% FBS, and incubated with 100 μL IGSF8 recombinant proteins or antibodies (5 μg/mL) for 30 minutes on ice. Cells were then washed twice with wash buffer, and incubated with 100 μL of 1:100 anti-human Fc-PE antibody for 15 minutes on ice. Cells were washed twice with wash buffer and analyzed on a FACS analyzer (CytoFlex, Beckman). In these experiments, the mean fluorescence intensity (MFI) of IGSF8 binding to different CT26 cells were normalized by the expression of different KLRs on CT26 cells using an anti-thy1.1 mAb via flow cytometry.

[7] = target: T1, mouse IGSF8 expressed on CT26 cells; test: FACS on CT26 cells expressing IGSF8
Experimental: as §1

binding result [1]: no binding (tested: 40 ug/ml)
Kd [2]: 0.256 nM
koff [2]: 3.68e-05 s⁻¹
kon [2]: 144000 M⁻¹ s⁻¹
EC50 [3]: 0.145 µg/mL
EC50 [4]: 0.041 µg/mL
IC50 (read off the curve) [5]: ~0.4 µg/mL
B1: L2-10 (antibody, V domains shown)
VH: EVQLVESGGGLEQPGGSLRLSCAASGFTFRDYAMTWVRQAPGKGLEWVSSISGSGGSTYYADSVKGRFTISRDNSKNTLYLQMNSLRAEDTAIYYCARGEYSSGWPSWFDPWGQGTLVTVSS
VL: DIQMTQSPSSLSASVGDRVTITCRASRTVGTFLNWYQQKPGKAPKALILHTSILEGGVPSRFSGSGSGTDFTLTISSLQPEDIATYYCQQSHDVPRTFGQGTKVEIK
notes: also called L2-10-IgG1

binding result [1]: no binding (tested: 40 ug/ml)
EC50 [3]: 0.473 µg/mL
EC50 [4]: 0.212 µg/mL
B2: L2-01 (antibody, V domains shown)
VH: B1 VH with A24G, S57N
VL: EIVLTQSPSSLSASVGDRVTISCRASRTVGTFLNWYQQRPGKPPQALILGVSILEGGVSSRFSGAGSGTEFSLTISSLQPEDIGTYYCQQSHDVPRTFGQGTKVDLR
notes: Expressed in CHO cells; also called L2 antibody; L2-01-IgG1

Further lines, the binder ahead of its results:

B3: KLRD1 alone on CT26 cells (receptor, UniProt Q13241 1-179, looked up)
chain: MAVFKTTLWRLISGTLGIICLSLMSTLGILLKNSFTKLSIEPAFTPGPNIELQKDSDCCSCQEKWVGYRCNCYFISSEQKTWNESRHLCASQKSSLLQLQNTDELDFMSSSQQFYWIGLSYSEEHTAWLWENGSALSQYLFPSFETFNTKNCIAYNPNGNALDESCEDKNRYICKQQLI
notes: whole, on cells; also called KLRD1 monomer
binding result [6]: no binding

B4: L1-20 (antibody, IgG1, V domains shown)
VH: QVQLVESGGGVVQPGRSLRLSCAASGFTFSTYGMHWVRQAPGKGLEWVAVIWDDGSYKYYGDSVKGRFTISRDNSKNTLYLQMNSLRAEDTAVYYCARDGSGWGYAFDIWGQGTLVTVSS
VL: DIQLTQSPSSLSASVGDRVTITCQASQDIEWWLNWYQQKPGKAPKLLIYGSPNLETGVPSRFSGSGSGTDFTFTISSLQPEDIATYYCQQYDSFPYTFGQGTKVEIK
notes: also called L1-20-IgG1
Kd [2]: 0.0214 nM
koff [2]: 7.02e-06 s⁻¹
kon [2]: 329000 M⁻¹ s⁻¹
EC50 [3]: 0.0537 µg/mL
EC50 [7]: 0.0275 µg/mL
EC50 [4]: 0.0268 µg/mL
IC50 (read off the curve) [5]: ~0.3 µg/mL

B5: L1-01 (antibody, V domains shown)
VH: B4 VH with L115M
VL: DIQLTQSPSSLSASVGDRVTITCQASQDISEYLNWYQHKPGKAPNPLVFDAANLETGVPPRFSATGSGTDFSLTITSLQPEDFATYYCQQYDSFPYTFGQGTRLDIK
notes: Expressed in CHO cells; also called L1 antibody; L1-01-IgG1
EC50 [3]: 0.206 µg/mL
EC50 [7]: 0.538 µg/mL
EC50 [4]: 0.224 µg/mL

B6: KLRC1 alone on CT26 cells (receptor)
chain: not shown
notes: whole, on cells; also called KLRC1 monomer
binding result [6]: no binding
